Measured values taken from the DeepSol protein solubility set.

Assay: soluble on expression in E. coli; label from the status in PepcDB or PDB records

Soluble on expression in E. coli, soluble:
MSLKIKVYLYTRVSTSIQIEGYSLEAQKSRMKAFAIYNDYEIVGEYEDAGKSGKSIEGRIQFNRMMEDIKSGKDGVSFVLVFKLSRFARNAADVLSTLHIMQDYGVNLICVEDGIDSSKDAGKLMISVLSAVAEIERENIRIQTMEGRIQKAREGKWNGGFAPYGYKLEDGKLFINEEEAVAIRTIFDQYVNTTIGANGISKYLENHGIRKIPRQNGKNPLFDAGLIRKILKNPVYNGKIAFGRRTLEKVHGTRNEYKQVEQDEYLISEGIHEAIVSDEVWQAAQVKLKSQAKKYEHVNKGKDTRTHLLSGIVKCPICGVGMFGNKCIKKKKDGTKYKDFYYYGCNHRQMIRGHKCTFSKQIREELLDDAVAEVIVKIVSNPKFASMMQEKINMKVDTSEIEKEIDNYQKELRKSHSTKFKLIEEIDNLDVEDKHYKRRKQDLDDRLYRMYDKIDELESSLIDAKAKKQTIEAEKLTGDNIYKVLIYFDKLYKVMNDVERRQLISALISEIQVYEEKQSNGQWLKSITFKLPIIEENLNIDLDNDEQVECVSLLEKRSEGHHHHHH
MKIAITITVLMLSICCSSASSDICPGFLQVLEALLLGSESNYEAALKPFNPASDLQNAGTQLKRLVDTLPQETRINIVKLTEKILTSPLCEQDLRV
MAHHHHHHMGIGYSQPLTVDTAGPPSSFSCARTVAHVAALTIQRSTQFLGGSTPPPSQSHTHAHHRKKHSHVRSEIACWASATLPSHSNLQRLRDPTTAVNRHSKRCKGEMVVRRMPSDGAGSHATVSENRAPSKRKLRGGFLFASSKWREHLTCNNQNGDTEDHWGLGEGEVRFHSWERILALSVCPLFLLPDGRDSGVTALCGHTEGHEGKERTAVGIMLRTVVKMGDESELTKGGSRGN
MDQIRQLAQWIKEANTIAVLTGAGMSTESGIPDFRSENGLYAQEDNVEYYLSEYYYKKDPVDFWRRFKRMFSLKMMGGFAPNDGHRFLRWLEEMGKTVTILTQNIDGLHTKAGSTNVIELHGTLQTATCPSCGNKYDLSFINRHEVPRCEKCQTIVKPDVVLFGGLVPRMEEAFAAAAASDLLLAMGTSLEVAPVNQIPFYVAAESPATRKVLINKTATRMDGMFDLVIYGGIGKTVASVRKQIQAE

Soluble on expression in E. coli, not soluble:
MPTQFIRNRSAFPQGTNNDIDDFQYQNDFSSSSHQLPSTASGYSEHSSHQNFQNHSPPPGKATTDPLAGALLGLSDVITKSLISHPCGVLRRQCQVHQFAGSLHLTPVTLIPVICNSVAKQGIQTFWKGAIGSSVLWGLTNVTEIVLGDLMGLPRTFVVNGSAEKYWKHIVLKGVTFVTMTPFYISSFIETVRSESGIGGEDNKILDVLVKGVDRMRYFLTSGRDPSRRFSIIHLAIPTAGFQVGHYMLQTALYHQFFRMAKRYVNRKSPAEKTTYHDFLPQMFAQTSSMVLTDLILYPFETIVHRMYIQGTRTLIDNMDTGLSAVSMTVKYSGYFDCVRQVLETEGFWALYAGVGAVLLEYSLHQGLQQLVRACFDRGSELLRKATQGHPVVQSSQITPPISAKSSFNGPISNSFPSAGAALLSPMSTPRKHSTPPKDPTEFPTFGETVSQIGSPYQMPDRPNVFGSPPNRTRATHDSTQSLPPLQLNIRPSSGDPFSG
MGSDKIHHHHHHMTTHLTGTRDEWLTARRALLDAEKTLTRHSDALARRREALPWVRVDKTYRFDTEHGAATLDDLFDGRSQLLVYHFMFGPDYKAGCPSCSALADGFDGFAVHLANHDVTLAAVSRAPLAKLLAYRQRMGWRFPWASSEGGAFNFDFNVSFTEAQQRTGDVEYNYARAAHAMDVDPPPAAVAQFAATCGTDAATYARDRPGMSAFVREDGVVYHTYSTYARGLDALWGMYAWLDRAPLGRNETGVWWRRHDEYARD
IIPISNFFQMVDALAEVSSTRIRLQEEILAGSWESLNTGRADLLVCPSLDTLPQEVKAEKIGKMSMIWVAATEHYVHKRSGEFDDSAREKYRIIAIADTAREQPALSINIIQKQPRLTVTNFTAKVEALTAGLGIGTLPRQIALPLIEKGVLKQIEGTEEQPMDIILAWRRNTMGEAKSWCIQYLKKNWKLK
MRRLVLLLALCFSCSFAQYGLYGSGYNGYGGYGSGYGTGYGMGYGMGYPMNPYMNQVYGYGSNPMMSGGGGMYGAGGCMDLSPQCSVWASTGQCSTNPMMMRQTCAMSCGTCSTGVGALGSMGSYNPFGGYGGMGYPQAGLLDPLAQFIGRSIYETGILRQPTPSSSSKSIGILTKAKSEQLPSR
MIELPVVPSASDRKSKPDWLRVKLPIGKEYTKLRALVDEHKLHTICQSGNCPNMGECWGAGTATFMILGNVCTRSCSFCAVATGRPTEYDIDEPKRVAEAVRLMNVKHCVITSVNRDELKDKGAEVWYQTVVRVKEESPQTTIETLIPDVKSDWASLERMISGGQEVVSHNMETVERLYRRVRPQAKYSRSLEEIQRIKAFGKRTKSGIMLGLGETKDEVLKAMDDLVAHGLDVLTLGQYLQPTKMHLEVAEFIHPDQFAEYKEIGLSKGLNYVESGPLVRSSYHAEKHI
MSLSASTHDLVIIGAGPAGMSAALTAASLGMKTLLLDEQLRPGGQIYRNITAVPPSVAALLGPDYRHGEGLAARLGRSGVELRFGAMVWDVARDLTVTAQQDGQSFQVRAPQLIAATGAMERASPIPGWTLPGVLNAGAAQIALKSASAVPSGRVVLAGSGPLLLLVACQLLDAGVSLAGIVETSPSTNRWRALRHLPAALGAHAYLAKGLRMLWRLRRAGVPMFAAATSLRVEGGERVQALAFKADRIDHLLHADVVLLHHGVVPNTQLSRLLRVDHDWDLVQLAWRPQVNAWGETSLAGFRVAGDGAAIAGAQAAEPNGTLAALGAAQALGRLDVTECEQRAASARGTLKRQLRIRPFLDALYRPPEWLSDPTDETVVCRCEEVTAGRVREMARLGCQGPNQTKFFSRCGMGPCQGRVCGLTVTQILSTELGRPPSEVGAYHIRSPLKPVPLASIAALADTATIENSEPMETTEGHHHHHH
MIGYPIVFRCCECTVEEQTMEHLESHIWSRHLQAFPFKCAYCDFPALSAISLMDHFAQNHSDVAIVEFKRNLEDEKRFRKMVADSIAIEIDETSQQDSSTQMTVLQPMMQQGTAQMILLPPEGSQYDEIVDHRGPDEDDFGVLDDDENIEELIDDDDDDDYIDELGNPVFIGAHDDSDYILEDDLSPQGPIRSSNNYHLKYIRTRRMDKLIDNVVVNATQRDSPEQEDCSTSGVAFADGQTNSGKMGRFSCDRCSRTFKYQSKLDEHRRTHLGVKPFQCHYCTRQFSQRGALKTHMRLHTGERPFVCQWECGKQFASSSAKSHHEKTHSGERPYICNVCGKSFTKNSHVIRHLKNIHNRELAQQDAMLRGDDVQSTDESLNIGSARSQMSDIEPRGKEIGVVHDIVEQIHEERKDFMRL
MKHLNFILAGLFFLCGLCCRAQVLPLEENVVLNTKEGQIKGKLLLPGGVKTCPVVLIIAGSGPTDMDGNSAIGNLRNNSLKFLAEGLAANGIASLRFDKRGIGTSASAGKEEAKLRFEDYVNDVTGWIDYLAKEKRFTTITVAGHSEGALIGMLACQNRPKVKGYISVAGAGRPAYEIIEAQVAAQQNPEAVRKEVASINGSLKNGKEVSDVPAYLQSLYRASVQPYLISWFKYNPRTVIASVKVPVLIVQGKNDIQVSVEDAELLKKGCPAAELLLIDKMNHVLKDCESKAVQQQMLTYGNPSLPVNSTLIASVSTFVKKLK
NHINPVNPAEPALYLPTQYDVREFAEKTKNETVYVFTSVGEYWPLAWYLRDHRAYFITTGVEGRSFISGNYIVVNATNDMRLDKTNLEFVETMVVRCWTFWTTPELQRIPAFLAFREPLTDVSCMNFSVYRAI
MGSDKIHHHHHHMGGLKMKVIILGSGSYSGTPKPLCTCENCTRARINPAFRRTRFSVYIEGGILIDPGPDLHYHLEKLNKEVETILITHAHFDHIFGLPDAQVFKKLTIASNPLGIKVARSLAMLAFNSEAPLGNDWDYVELKFWNEYKVNGVKVIHFPVVHSIEMAGGFLIERKNKTVAITGDTGPEIIRDSEVIDLIKGSDLLISEMTHKESIPKTHLGVNDAIELAKIVKAEQTVFAHISHSNYPQEILEKKVREAKISGIVARDFTIIEI
